Measured values: patent publication US20260026500A1, “AGROCHEMICAL COMPOSITIONS” (BIOTALYS NV, priority 2022, published 2026)

Tested on: Botrytis cinerea
Assay: In vitro microtiter plate antifungal assay, confluence analysis (IncuCyte S3) of spore outgrowth
Assay type: cell-based
Excerpt: An “IC50 value”, “EC50”, “IC50”, “EC50” or “half maximal inhibitory concentration” as used herein interchangeably is a measure for the potency of a polypeptide or cell wall disrupting agent or compositions as described herein in inhibiting the growth of a fungal pathogen. In practice (also see example 1) the growth of a fungal pathogen is tracked by measuring the confluency of said fungal pathogen in for example a well of a 96-well plate or 384-well plate in the presence of a series of different concentrations of the tested polypeptide or cell wall disrupting agent or compositions as described herein. The confluency data at the time-point at which the non-treated or negative control reaches for example 90% saturation is then taken for each concentration of the polypeptide or cell wall disrupting agent or compositions as described herein. Said confluence values are then plotted against the log transformed concentration values yielding a sigmoidal curve. This sigmoid curve may serve to define an IC50 value. Where this IC50 is the concentration of the polypeptide or cell wall disrupting agent or compositions as described herein where the corresponding confluence value is 50% of the saturated value as estimated by the maximum of the sigmoidal function.
The antifungal activity of VHHs, in combination with CWDEs, was assessed in an in vitro assay against the plant pathogenic fungus Botrytis cinerea. The current in vitro assay is a standard microtiter plate-based antifungal assay against Botrytis cinerea based on confluence analysis using an IncuCyte S3 System tracking the outgrowth of fungal spores overtime until saturation is reached. VHHs and CWDEs were assessed in serial dilutions, alone and in combination. The CWDEs were mixed with one VHH at a fixed ratio and serially diluted in 10 mM sterile HEPES buffer pH 7. […] Confluence was calculated with IncuCyte software version 2021C (Essen BioScience Inc.). […]
The IC50 value for both the CWDE and VHH were determined separately (FIGS. 1A and 1B, top panel). […]

B1: VHH-1: VHH, SEQ ID NO 1; taken from WO2021198396 (protein)
VHH: DVQLVESGGGLVQAGGSLRLSCAASRSIFSINAMDWYRQAPGKQREWVAGITRGGTTKYADSVKGRFTISRDNAKKKVYLQMNSLKPEDTAVYYCNVLRGEQPWTRDYWGQGTQVTVSS
modifications: Synthetic VHH sequence.
- IC50 value, determined separately (VHH or CWDE alone, confluence of Botrytis cinerea, 4-parameter log-logistic fit, CWDE protein concentration overestimated): 105.2 µg/mL
- % change, additive effect of component, buffer normalized to 100% (dose regime VHH-1 at 16.7 mg/L and CWDE at 25 mg/L, protease inhibitor 0.06 X): 20.5%
- Estimate (% confluence), additive effect of component, difference from buffer (dose regime VHH-1 at 16.7 mg/L and CWDE at 25 mg/L, protease inhibitor 0.06 X, buffer 55.3): 11.3 % confluence
